Assay [1] addresses T1, Plasma-derived FVIII light chain (UniProt P00451 1668-2351).
T1 construct: domain: light chain (a3-A3-C1-C2); Prepared from plasma as in the cited literature; Human by context (the peptides are said to cover human FVIII regions); Residue numbers count on mature FVIII, without the signal peptide; also called LCh; 80-kDa light chain (a3-A3-C1-C2)
T1 sequence (looked up): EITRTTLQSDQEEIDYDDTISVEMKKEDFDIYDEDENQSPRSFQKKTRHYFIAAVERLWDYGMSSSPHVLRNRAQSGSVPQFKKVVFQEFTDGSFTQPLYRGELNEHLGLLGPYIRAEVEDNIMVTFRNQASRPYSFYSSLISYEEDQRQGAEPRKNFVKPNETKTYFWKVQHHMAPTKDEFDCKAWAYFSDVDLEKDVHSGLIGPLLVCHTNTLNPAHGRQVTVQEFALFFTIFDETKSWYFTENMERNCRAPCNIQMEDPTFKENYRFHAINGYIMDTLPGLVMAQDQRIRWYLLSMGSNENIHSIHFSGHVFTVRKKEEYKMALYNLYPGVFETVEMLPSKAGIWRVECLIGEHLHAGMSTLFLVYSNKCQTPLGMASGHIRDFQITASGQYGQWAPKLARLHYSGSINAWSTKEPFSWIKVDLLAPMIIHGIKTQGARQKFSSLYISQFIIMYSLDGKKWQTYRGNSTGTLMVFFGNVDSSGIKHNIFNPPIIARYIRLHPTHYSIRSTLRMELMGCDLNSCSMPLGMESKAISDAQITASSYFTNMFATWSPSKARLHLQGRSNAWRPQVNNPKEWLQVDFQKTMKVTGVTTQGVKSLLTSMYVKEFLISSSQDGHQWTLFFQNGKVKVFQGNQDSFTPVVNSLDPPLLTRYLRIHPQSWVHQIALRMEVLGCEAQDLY
Nature of the assay: solid-phase competition: scFv KM33 (0-30 nM) against FVIII light chain (25 nM) binding to immobilised LRP cluster II (FIG. 5). As to the method: (§1) FIG. 5. […] Data represent the mean ±S.D. of three experiments.
(§2) Solid-phase Binding Assays—Recombinant LRP clusters II or IV (1 pmol/well) were adsorbed onto microtiter wells in 50 mM NaHCO₃ (pH 9.8) in a volume of 50 μl for 16 h at 4° C. Wells were blocked with 2% (w/v) HSA, 150 mM NaCl, 5 mM CaCl₂, and 50 mM Tris (pH 7.4) in a volume of 200 μl for 1 h at 37° C. […] Bound ligand was detected by incubating with peroxidase-conjugated monoclonal antibody CLB-CAg 12 in the same buffer for 15 min at 37° C. […] Residual FVIII binding was detected as described above.

In assay [2] the target is T1, Plasma-derived FVIII light chain. Description: solid-phase competition assay: FVIII light chain (25 nM) on immobilised LRP cluster II (1 pmol/well) in the presence of scFv KM33 (0-30 nM); detection with peroxidase-conjugated CLB-CAg 12. The protocol:
as §1, §2

B1: scFv KM33 (scFv)
scFv: EVQLVESGGGVVQPGRSLRLSCVDSGLTFSSYGMHWVRQAPGAGLEWVAVISYDGNDKYYADSVKGRFAISRDNAKNTLYLQMNSLTIEDTAVYYCAKDLIESNIAEAFWGQGTLVTVSSGGGGSGGGGSGGGGSDIQMTQSPSSLSASVGDTVTIACRASRDIRNDLAWYQQKPGKAPKLLIYATSRLQSGVPSRFSGSGSFTDFTLTINSLQPDDSATYYCLQDSDYPLTFGGGTKVDIKRAAAEQKLISEEDLNGAAHHHHHH
notes: Expressed in E. coli TG1
By Ki is commonly meant a dissociation constant, usually derived from enzyme kinetics or from competition with a known ligand. A low value points to a stronger hold on the target. Consider B1, for which, in assay [1], the Ki was roughly 5 nM. For the same molecule, the “IC50 (read off the curve)” value in assay [2] is roughly 7 nM.

The record behind these values is patent US20080219983A1 (TRIMESTER CUSHION, published 2008).
